Among the data in patent US20240067734A1 are OD max values, retold here.

The assay deals with di muNKG2D ECD Fc avi (murine). Description: ELISA; biotinylated antigen on streptavidin plate.
di muNKG2D ECD Fc avi (murine), sequence (chain, as listed by the source limits assumed): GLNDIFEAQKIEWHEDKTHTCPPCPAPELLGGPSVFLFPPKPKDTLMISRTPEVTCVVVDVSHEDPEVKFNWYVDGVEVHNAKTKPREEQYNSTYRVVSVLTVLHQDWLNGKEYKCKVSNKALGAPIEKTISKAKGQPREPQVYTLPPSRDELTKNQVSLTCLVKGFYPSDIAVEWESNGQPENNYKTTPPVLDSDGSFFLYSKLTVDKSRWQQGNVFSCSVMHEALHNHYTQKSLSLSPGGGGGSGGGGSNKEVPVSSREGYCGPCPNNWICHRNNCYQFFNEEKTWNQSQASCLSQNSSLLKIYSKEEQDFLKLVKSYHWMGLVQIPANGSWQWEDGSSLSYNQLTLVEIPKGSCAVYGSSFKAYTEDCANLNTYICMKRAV

B1: anti-NKG2D antibody clone 001 (antibody, V domains shown)
VH: QQLEQSGGGLVTPGGSLKLCCIGSGFDFNTYWMTWVRQAPGKGLEWIGCIHGGSSGSTYYASWVNGRFTLSRDIDQSTGCLQVNSLTAADTAMYYCARPGYRSWSKTFDLWGQGTMVTVSS
VL: DIQMTQSPSSLSASVGDRVTITCRASQDISESLNWYQQKPGKAPKLLIYAASSLQSGVPSRFSGSGSGTDYTLTISSLQPEDFATYYCQQANSFPLTFGGGTKVEIK
The molecule B1 showed an OD max of 0.2 OD.
